B1: RecO (Gal4 fusion for yeast two-hybrid) (natural protein, E. coli, UniProt P0A7H3 1-242, looked up)
chain: MEGWQRAFVLHSRPWSETSLMLDVFTEESGRVRLVAKGARSKRSTLKGALQPFTPLLLRFGGRGEVKTLRSAEAVSLALPLSGITLYSGLYINELLSRVLEYETRFSELFFDYLHCIQSLAGVTGTPEPALRRFELALLGHLGYGVNFTHCAGSGEPVDDTMTYRYREEKGFIASVVIDNKTFTGRQLKALNAREFPDADTLRAAKRFTRMALKPYLGGKPLKSRELFRQFMPKRTVKTHYE
notes: RecO, E. coli; open reading frame (start to stop codons) of recO; also called pGAD-RecO; pGBD-RecO; source: yeast two-hybrid fusion (yeast CFy7; pEAW1258 pGAD-RecO, pEAW1259 pGBD-RecO)
B2: TopB (Gal4 fusion for yeast two-hybrid) (natural protein, E. coli, UniProt P14294 1-653, looked up)
chain: MRLFIAEKPSLARAIADVLPKPHRKGDGFIECGNGQVVTWCIGHLLEQAQPDAYDSRYARWNLADLPIVPEKWQLQPRPSVTKQLNVIKRFLHEASEIVHAGDPDREGQLLVDEVLDYLQLAPEKRQQVQRCLINDLNPQAVERAIDRLRSNSEFVPLCVSALARARADWLYGINMTRAYTILGRNAGYQGVLSVGRVQTPVLGLVVRRDEEIENFVAKDFFEVKAHIVTPADERFTAIWQPSEACEPYQDEEGRLLHRPLAEHVVNRISGQPAIVTSYNDKRESESAPLPFSLSALQIEAAKRFGLSAQNVLDICQKLYETHKLITYPRSDCRYLPEEHFAGRHAVMNAISVHAPDLLPQPVVDPDIRNRCWDDKKVDAHHAIIPTARSSAINLTENEAKVYNLIARQYLMQFCPDAVFRKCVIELDIAKGKFVAKARFLAEAGWRTLLGSKERDEENDGTPLPVVAKGDELLCEKGEVVERQTQPPRHFTDATLLSAMTGIARFVQDKDLKKILRATDGLGTEATRAGIIELLFKRGFLTKKGRYIHSTDAGKALFHSLPEMATRPDMTAHWESVLTQISEKQCRYQDFMQPLVGTLYQLIDQAKRTPVRQFRGIVAPGSGGSADKKKAAPRKRSAKKSPPADEVGSGAIA
notes: TopB (DNA topoisomerase III), E. coli; open reading frame (start to stop codons) of topB; also called pGAD-TopB; pGBD-TopB; source: yeast two-hybrid fusion (yeast CFy7; pEAW1251 pGAD-TopB, pEAW1252 pGBD-TopB)
B3: RecQ (Gal4 fusion for yeast two-hybrid) (natural protein)
chain: not shown
notes: RecQ helicase, E. coli; open reading frame (start to stop codons) of recQ; also called pGAD-RecQ; pGBD-RecQ; source: yeast two-hybrid fusion (yeast CFy7; pEAW1100 pGAD-RecQ, pEAW1105 pGBD-RecQ)
B4: RecF (Gal4 fusion for yeast two-hybrid) (natural protein, E. coli, UniProt P0A7H0 1-357, looked up)
chain: MSLTRLLIRDFRNIETADLALSPGFNFLVGANGSGKTSVLEAIYTLGHGRAFRSLQIGRVIRHEQEAFVLHGRLQGEERETAIGLTKDKQGDSKVRIDGTDGHKVAELAHLMPMQLITPEGFTLLNGGPKYRRAFLDWGCFHNEPGFFTAWSNLKRLLKQRNAALRQVTRYEQLRPWDKELIPLAEQISTWRAEYSAGIAADMADTCKQFLPEFSLTFSFQRGWEKETEYAEVLERNFERDRQLTYTAHGPHKADLRIRADGAPVEDTLSRGQLKLLMCALRLAQGEFLTRESGRRCLYLIDDFASELDDERRGLLASRLKATQSQVFVSAISAEHVIDMSDENSKMFTVEKGKITD
notes: RecF, E. coli; open reading frame (start to stop codons) of recF cloned in frame into pGAD-C3 and pGBD-C3; Stood as AD fusion and as BD fusion in turn; one molecule for both; source: yeast two-hybrid fusion (yeast CFy7; pEAW1241 pGAD-RecF, pEAW1242 pGBD-RecF)
B5: RadD (Gal4 fusion for yeast two-hybrid) (natural protein, E. coli, UniProt P33919 1-586, looked up)
chain: MIFTLRPYQQEAVDATLNHFRRHKTPAVIVLPTGAGKSLVIAELARLARGRVLVLAHVKELVAQNHAKYQALGLEADIFAAGLKRKESHGKVVFGSVQSVARNLDAFQGEFSLLIVDECHRIGDDEESQYQQILTHLTKVNPHLRLLGLTATPFRLGKGWIYQFHYHGMVRGDEKALFRDCIYELPLRYMIKHGYLTPPERLDMPVVQYDFSRLQAQSNGLFSEADLNRELKKQQRITPHIISQIMEFAATRKGVMIFAATVEHAKEIVGLLPAEDAALITGDTPGAERDVLIENFKAQRFRYLVNVAVLTTGFDAPHVDLIAILRPTESVSLYQQIVGRGLRLAPGKTDCLILDYAGNPHDLYAPEVGTPKGKSDNVPVQVFCPACGFANTFWGKTTADGTLIEHFGRRCQGWFEDDDGHREQCDFRFRFKNCPQCNAENDIAARRCRECDTVLVDPDDMLKAALRLKDALVLRCSGMSLQHGHDEKGEWLKITYYDEDGADVSERFRLQTPAQRTAFEQLFIRPHTRTPGIPLRWITAADILAQQALLRHPDFVVARMKGQYWQVREKVFDYEGRFRLAHELRG
notes: RadD (YejH), E. coli; also called YejH; pGAD-YejH; source: yeast two-hybrid fusion (yeast CFy7)
B6: RecR (Gal4 fusion for yeast two-hybrid) (natural protein, E. coli, UniProt P0A7H6 1-201, looked up)
chain: MQTSPLLTQLMEALRCLPGVGPKSAQRMAFTLLQRDRSGGMRLAQALTRAMSEIGHCADCRTFTEQEVCNICSNPRRQENGQICVVESPADIYAIEQTGQFSGRYFVLMGHLSPLDGIGPDDIGLDRLEQRLAEEKITEVILATNPTVEGEATANYIAELCAQYDVEASRIAHGVPVGGELEMVDGTTLSHSLAGRHKIRF
notes: RecR, E. coli; open reading frame (start to stop codons) of recR; Stood as AD fusion and as BD fusion in turn; also called pGAD-RecR; pGBD-RecR; source: yeast two-hybrid fusion (yeast CFy7; pEAW1247 pGAD-RecR, pEAW1248 pGBD-RecR)

Experiment in all cases: two-hybrid; yeast CFy7; RecF fused to Gal4 AD (pGAD-C3) or BD (pGBD-C3) and the partner to the other domain; β-galactosidase activity of freeze/thaw-broken cells in Z buffer; 4 or 5 biological replicates; negative controls (empty C3) 0.21 (AD_RecF) and 0.27 units (BD_RecF)
Series [1] deals with B4. The conditions noted are these: partners not purified.
In series [2] the target is B6. Particulars: partners not purified.
In series [3] the target is T1, DnaN β-clamp (Gal4 fusion for yeast two-hybrid) (E. coli, UniProt P0A988 1-366).
T1 construct: DnaN (β-clamp of DNA polymerase III), E. coli; open reading frame (start to stop codons) of dnaN; also called pGBD-DnaN; source: yeast two-hybrid fusion (yeast CFy7; pEAW1101 pGAD-DnaN, pEAW1104 pGBD-DnaN)
T1 sequence (P0A988 whole entry, the tested form may be a part): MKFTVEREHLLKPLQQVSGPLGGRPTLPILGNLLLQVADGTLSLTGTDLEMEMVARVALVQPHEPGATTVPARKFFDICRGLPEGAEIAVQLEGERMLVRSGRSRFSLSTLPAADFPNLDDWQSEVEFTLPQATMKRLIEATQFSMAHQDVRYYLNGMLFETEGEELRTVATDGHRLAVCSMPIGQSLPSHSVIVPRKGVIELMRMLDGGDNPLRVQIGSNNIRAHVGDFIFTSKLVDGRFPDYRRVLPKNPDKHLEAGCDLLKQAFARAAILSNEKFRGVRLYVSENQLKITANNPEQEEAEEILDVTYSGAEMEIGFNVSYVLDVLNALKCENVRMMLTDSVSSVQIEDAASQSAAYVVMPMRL
The conditions noted are these: partners not purified.

Series [4] deals with the molecule itself.

Molecule B1 showed a β-galactosidase activity in series [1] of about 0.5 units. The same measure, in the same setting: the figure for B2 is about 0.5 units; for B3 it is about 0.5 units. For the molecule B4, the β-galactosidase activity in series [2] worked out at 1.14 units; in series [3] it was 1.05 units; in series [4], 0.655 units. The molecule B5 came in with a β-galactosidase activity in series [1] of about 0.5 units. Consider B6, for which the β-galactosidase activity in series [1] is 1.63 units.

Source of the values: PMC10287930, “RecF protein targeting to post-replication (daughter strand) gaps II: RecF interaction with replisomes” (Nucleic Acids Research, 2023).
